The subject of assay [1] is c-Myc activation domain. As to the kind of experiment: GAL4 luciferase reporter assay in CHO cells: c-Myc activation domain. The conditions noted are these: 48 hours post-transfection, FIG. 4A. The assay is classed as cell-based, Chinese hamster. The protocol: (§1) In these experiments, CHO cells were cotransfected with constructs encoding the transcription factors and JIP-1 using previously described methods. Dérijard et al., supra; Sluss et al., supra; Gupta et al., supra. A luciferase reporter plasmid was used to monitor the expression of the transcription factors. Transfection efficiency was determined using a β-galactosidase expression vector. Constructs used in these experiments included GAL4 fusions with the c-myc, Sp1 and VP16 activation domains (described in Whitmarsh et al., Science, 269:403 (1995); Davis, Science, 269:403 (1995); Gille et al., Curr. Biol., 5:1191 (1995)). […]
(§2) Transfected cells were activated by treatment with 10% (v/v) fetal calf serum, and luciferase and β-galactosidase activities were measured in cell lysates at 48 hours post-transfection. The data are presented as the ratio of luciferase activity (light units) to β-galactosidase activity (OD units) measured in the cell extracts (mean±SEM (n=3)), and are normalized to the luciferase activity detected in the absence of JBD (FIGS. 4A and 4B) or ATF2 (FIG. 4C).

Assay [2] deals with E1a activation domain. Briefly: GAL4 luciferase reporter assay in CHO cells: E1a activation domain. The assay is classed as cell-based, Chinese hamster. The conditions noted are these: 48 hours post-transfection, FIG. 4A.
Assay [3] has as its system Sp1 activation domain. As to the kind of experiment: GAL4 luciferase reporter assay in CHO cells: Sp1 activation domain. The format is cell-based, Chinese hamster. Particulars: 48 hours post-transfection, FIG. 4A. As for the experimental part: as §1, §2
For orientation: In a reporter assay the amount or activity of a reporter protein is the signal.

Assay [4] has as its system VP16 activation domain. Briefly: GAL4 luciferase reporter assay in CHO cells: VP16 activation domain. The conditions noted are these: 48 hours post-transfection, FIG. 4A. The assay is classed as cell-based, Chinese hamster. The protocol:
as §1, §2

For assay [5], the system named is ATF2 transcriptional activity. As to the kind of experiment: GAL4 luciferase reporter assay in CHO cells: GAL4-ATF2. The assay is classed as cell-based, Chinese hamster. Particulars: GAL4-ATF2 reporter, CHO cells, FIG. 4C. As for the experimental part: In these experiments, CHO cells were cotransfected with constructs encoding the transcription factors and JIP-1 using previously described methods. Dérijard et al., supra; Sluss et al., supra; Gupta et al., supra. A luciferase reporter plasmid was used to monitor the expression of the transcription factors. Transfection efficiency was determined using a β-galactosidase expression vector. Constructs used in these experiments included GAL4 fusions with the c-myc, Sp1 and VP16 activation domains (described in Whitmarsh et al., Science, 269:403 (1995); Davis, Science, 269:403 (1995); Gille et al., Curr. Biol., 5:1191 (1995)). Other constructs used were GAL4-c-Jun, in which GAL4 is fused to c-Jun; GAL4-c-Jun (S63A/S73A), in which GAL4 is fused to a mutant c-Jun in which the serines at positions 63 and 73 have been changed to alanines; GAL4-ATF2, in which GAL4 is fused to wild type ATF2 (ATF2(Thr-69, 71)); GAL4-ATF2 (T69A/T71A) (ATF2(Ala-69/71)), in which GAL4 has been fused to a mutant ATF2 in which the […] at positions 69 and 71 have been changed to alanines; GAL4-Elk-1, in which GAL4 has been fused to Elk-1; and GAL4-Elk-1 (S383A), in which GAL4 has been fused to a mutant Elk-1 in which the serine at position 383 has been changed to an alanine. Gupta et al., EMBO J, 15:2760-2770 (1996); Raingeaud et al., Mol. Cell. Biol., 16:1247-1255 (1996); Whitmarsh et al. Science, 269:403-407 (1995).
Insertional overlapping PCR, described in detail in Ho, supra, was used to construct expression vectors for the JNK binding domain (JBD; amino acid residues 127-281) of JIP-1 and for a mutant JIP-1 lacking the SH3 (amino acid residues 491-540) domain.
as §2

Assay [6] deals with differentiated PC12 cells. Briefly: NGF withdrawal-induced apoptosis of differentiated PC12 cells. Particulars: pCDNA3-Flag-JIP-1 (residues 127-281) transfection; 17 hours following NGF withdrawal; FIG. 5. The format is cell-based. An excerpt: The effect of JIP-1 on this biological response was investigated to determine whether JIP-1 inhibits the biological effects of the JNK signaling pathway. NGF withdrawal-induced apoptosis of differentiated PC12 cells was examined following transfection with the expression vectors pCDNA3 (control) and pCDNA3-Flag-JIP-1 (containing residues 127-281 of JIP-1) using methods described previously. Xia et al., Science, 270:1326 (1995). The percentage of apoptotic cells in the total transfected cell population was blind-scored and quantitated. This assay scores adherent cells with an apoptotic morphology at 17 hours following NGF withdrawal. Cells that have completed apoptosis are nonadherent and are not scored. Thus, while the cumulative extent of apoptosis is large (100%), lower numbers of apoptotic cells are detected at a single time point.

Assay [7] has as its system JNK. As to the kind of experiment: JNK activation by v-ABL or BCR-ABL in transfected 293 cells (immune complex kinase assay). The conditions noted are these: co-expression in 293 cells; GST-Jun substrate. The format is cell-based. An excerpt: The BCR-ABL oncogene, which is associated with chronic myelogenous leukemia (CML), causes JNK activation in the absence of increased ERK activity. Raitano et al., Proc. Natl. Acad. Sci. USA, 92:11746 (1995). Oncogenic transformation by BCR-ABL may be mediated in part by the JNK signaling pathway. Since JIP-1 can inhibit JNK activity, the effect of JIP-1 expression on oncogenic transformation was examined. Plasmid vectors expressing v-ABL or BCR-ABL and Flag-tagged JBD (residues 127-281) of JIP-1 were used to transfect 293 cells. JNK activity was then measured in an immune complex kinase assay of lysates of the transfected 293 cells, using a polyclonal JNK antibody and GST-Jun as the substrate. […] JIP-1 can therefore inhibit BCR-ABL-mediated activation of JNK.

The test system of assay [8] is primary mouse marrow cells (pre-B cells). As to the kind of experiment: Bone marrow transformation assay: pre-B cell transformation by BCR-ABL retrovirus. The assay is classed as cell-based. The conditions noted are these: bicistronic retrovirus, JBD in sense orientation (not anti-sense); day 10 post infection; FIG. 6. The protocol:
To examine the effect of JIP-1 on BCR-ABL-mediated cellular transformation, bone marrow transformation assays were performed using recombinant retroviruses packaged with 293T cells as described in Sawyers et al., J. Exp. Med., 181:307 (1995). Bicistronic retroviruses expressing BCR-ABL, alone, or in combination with the Flag-tagged JBD (residues 127-281) of JIP-1, were prepared by subcloning p185BCR-ABL into the ClaI site of pSRαTK, downstream of the internal TK promoter, to create pSRαMSVTKp185. The JBD was subcloned into the upstream EcoRI site in the sense and antisense orientations.
The recombinant retroviruses were then used to infect primary mouse marrow cells, and the transformation of pre-B cells was monitored in culture. […] The data shown are derived from three independent experiments plated in triplicate. As expected, BCR-ABL caused pre-B cell transformation.

B1: JBD: JNK binding domain of JIP-1, residues 127-281, expressed (Flag-tagged) in cells (protein)
chain: PKAESNQDPAPRSQGQGPGTGSGDTYRPKRPTTLNLFPQVPRSQDTLNNNSLGKKHSWQDRVSRSSSPLKTGEQTPPHEHICLSDELPPQGSPVPTQDRGTSTDSPCRRSAATQMAPPSGPPATAPGGRGHSHRDRIHYQADVRLEATEEIYLTP
modifications: Flag tag
Turning to B1, the “reporter gene expression mediated by c-Myc activation domain” value in assay [1] was “did not inhibit”. In assay [2], the “reporter gene expression mediated by E1a activation domain” value is “did not inhibit”. The “reporter gene expression mediated by Sp1 activation domain” value in assay [3] is “did not inhibit”. Further, the “reporter gene expression mediated by VP16 activation domain” value in assay [4] is reported as “did not inhibit”. Further, the JNK-regulated gene expression result in assay [5] is “inhibition”. Further, the “apoptosis following NGF-withdrawal” value in assay [6] was “markedly reduced”. In addition, in assay [7], the “constitutive JNK activation caused by v-ABL and BCR-ABL” value is given as “blocked”. Also, the “pre-B cell transformation by BCR-ABL” value in assay [8] is “marked inhibition”.
